Key:
[1] = confocal imaging, cell surface targeting, stable HepG2; settings: glycan lost; control: wild-type hSVCT1-YFP
[2] = flow cytometry, mean YFP fluorescence, stable HepG2; settings: glycan lost
[3] = confocal imaging, apical targeting, polarized MDCK cells; settings: glycan lost; control: wild-type hSVCT1-YFP
[4] = [14C]-ascorbic acid uptake, stable HepG2 cells; settings: glycan lost; control: wild-type hSVCT1-YFP
[5] = confocal imaging, transiently transfected HepG2; settings: glycan lost; control: untreated

Substance	expression_or_secretion ([2]; control: wild-type hSVCT1-YFP)	localisation_or_trafficking [3]	expression_or_secretion ([2]; control: wild-type hSVCT2-YFP)	further results
hSVCT1: N138Q	decreases	decreases		localisation_or_trafficking [1]: decreases
hSVCT1: N138Q/N144Q		decreases		
hSVCT2: N196Q			decreases	
hSVCT2: N188/N196Q			decreases	
hSVCT1: N138/N144Q	decreases			
hSVCT2: N188Q			decreases	
hSVCT1: N144Q	no change	no change		localisation_or_trafficking [1]: no change; other: transport activity [4]: decreases
hSVCT2: tunicamycin				localisation_or_trafficking [5]: no change; expression_or_secretion ([2]; control: untreated): decreases
hSVCT1: tunicamycin				localisation_or_trafficking [5]: decreases; expression_or_secretion ([2]; control: untreated): decreases

From article PMC2528843
